Measurements: US20230158141A1 (YAFEI SHANGHAI BIOLOG MEDICINE SCIENCE AND TECHNOLOGY, published 2023)

The binders below were run against T1, PD-1 (UniProt Q15116 25-167, limits assumed) (assay: ELISA, OD mutant/OD WT; ↓=less than 70%).
T1 sequence (Q15116 25-167 limits assumed): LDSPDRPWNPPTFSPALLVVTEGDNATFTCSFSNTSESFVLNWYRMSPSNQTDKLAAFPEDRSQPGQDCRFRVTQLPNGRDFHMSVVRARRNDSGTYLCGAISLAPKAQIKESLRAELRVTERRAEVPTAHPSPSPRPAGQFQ

| Binder | binding activity vs wild type [%] |
| --- | --- |
| anti-PD-1 antibody 2 heavy chain Y60C (antibody, human IgG4 S228P, kappa, V domains shown) VH: QVQLVESGGGVVQPGRSLRLDCKASGITFSNSGMHWVRQAPGKGLEWVAVIWYDGSKRYCADSVKGRFTISRDNSKNTLFLQMNSLRAEDTAVYYCATNDDYWGQGTLVTVSS VL: EIVLTQSPATLSLSPGERATLSCRASQSVSSYLAWYQQKPGQAPRLLIYDASNRATGIPARFSGSGSGTDFTLTISSLEPEDFAVYYCQQSSNWPRTFGQGTKVEIKR | < 70 |

What follows are binders tested against CD28 (UniProt P10747 19-152, limits assumed) (assay: ELISA, conjugate vs WT antibody).

| Binder | binding activity (% of WT) [%] |
| --- | --- |
| anti-CD28 antibody heavy chain G54C-R4-1 (antibody, human IgG4, kappa, V domains shown, R4-1 on Cys 54) VH: QVQLVQSGAEVKKPGASVKVSCKASGYTFTSYYIHWVRQAPGQGLEWIGCIYPCNVNTNYNEKFKDRATLTVDTSISTAYMELSRLRSDDTAVYFCTRSHYGLDWNFDVWGQGTTVTVSS VL: not shown | 97.9 |
| anti-CD28 antibody heavy chain T58C-R4-1 (antibody, human IgG4, kappa, V domains shown, R4-1 on Cys 58) VH: QVQLVQSGAEVKKPGASVKVSCKASGYTFTSYYIHWVRQAPGQGLEWIGCIYPGNVNCNYNEKFKDRATLTVDTSISTAYMELSRLRSDDTAVYFCTRSHYGLDWNFDVWGQGTTVTVSS VL: not shown | 89.3 |
| anti-CD28 antibody heavy chain S99C-R4-1 (antibody, human IgG4, kappa, V domains shown, R4-1 on Cys 99) VH: QVQLVQSGAEVKKPGASVKVSCKASGYTFTSYYIHWVRQAPGQGLEWIGCIYPGNVNTNYNEKFKDRATLTVDTSISTAYMELSRLRSDDTAVYFCTRCHYGLDWNFDVWGQGTTVTVSS VL: not shown | 87.6 |
| anti-CD28 antibody heavy chain T30C-R4-1 (antibody, human IgG4, kappa, V domains shown, R4-1 on Cys 30) VH: QVQLVQSGAEVKKPGASVKVSCKASGYTFCSYYIHWVRQAPGQGLEWIGCIYPGNVNTNYNEKFKDRATLTVDTSISTAYMELSRLRSDDTAVYFCTRSHYGLDWNFDVWGQGTTVTVSS VL: not shown | 87.3 |
| anti-CD28 antibody heavy chain Y27C-R4-4 (antibody, human IgG4, kappa, V domains shown, R4-4 on Cys 27) VH: QVQLVQSGAEVKKPGASVKVSCKASGCTFTSYYIHWVRQAPGQGLEWIGCIYPGNVNTNYNEKFKDRATLTVDTSISTAYMELSRLRSDDTAVYFCTRSHYGLDWNFDVWGQGTTVTVSS VL: not shown | 94.2 |
| anti-CD28 antibody heavy chain G102C-R4-1 (antibody, human IgG4, kappa, V domains shown, R4-1 on Cys 102) VH: QVQLVQSGAEVKKPGASVKVSCKASGYTFTSYYIHWVRQAPGQGLEWIGCIYPGNVNTNYNEKFKDRATLTVDTSISTAYMELSRLRSDDTAVYFCTRSHYCLDWNFDVWGQGTTVTVSS VL: not shown | 80.1 |
| anti-CD28 antibody heavy chain S31C-R4-1 (antibody, human IgG4, kappa, V domains shown, R4-1 on Cys 31) VH: QVQLVQSGAEVKKPGASVKVSCKASGYTFTCYYIHWVRQAPGQGLEWIGCIYPGNVNTNYNEKFKDRATLTVDTSISTAYMELSRLRSDDTAVYFCTRSHYGLDWNFDVWGQGTTVTVSS VL: not shown | 97.5 |
| anti-CD28 antibody heavy chain Y52C-R4-4 (antibody, human IgG4, kappa, V domains shown, R4-4 on Cys 52) VH: QVQLVQSGAEVKKPGASVKVSCKASGYTFTSYYIHWVRQAPGQGLEWIGCICPGNVNTNYNEKFKDRATLTVDTSISTAYMELSRLRSDDTAVYFCTRSHYGLDWNFDVWGQGTTVTVSS VL: not shown | 91.6 |

The binders below were run against CTLA-4 (UniProt P16410 36-162, limits assumed) (assay: ELISA, OD mutant/OD WT; A=90-110%).
Chain of CTLA-4 (P16410 36-162 limits assumed): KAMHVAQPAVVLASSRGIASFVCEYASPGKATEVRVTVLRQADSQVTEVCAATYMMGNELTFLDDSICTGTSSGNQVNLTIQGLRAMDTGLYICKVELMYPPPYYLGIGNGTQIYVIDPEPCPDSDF

| Binder | binding activity (OD after mutation/OD wild type) [%] |
| --- | --- |
| anti-CTLA-4 antibody heavy chain A61C (antibody, human IgG1, kappa, V domains shown) VH: QVQLVESGGGVVQPGRSLRLSCAASGFTFSSYTMHWVRQAPGKGLEWVTFISYDGNNKYYCDSVKGRFTISRDNSKNTLYLQMNSLRAEDTAIYYCARTGWLGPFDYWGQGTLVTVSS VL: not shown | 90 to 110 |
| anti-CTLA-4 antibody heavy chain L102C (antibody, human IgG1, kappa, V domains shown) VH: QVQLVESGGGVVQPGRSLRLSCAASGFTFSSYTMHWVRQAPGKGLEWVTFISYDGNNKYYADSVKGRFTISRDNSKNTLYLQMNSLRAEDTAIYYCARTGWCGPFDYWGQGTLVTVSS VL: not shown | 90 to 110 |
| anti-CTLA-4 antibody heavy chain S30C (antibody, human IgG1, kappa, V domains shown) VH: QVQLVESGGGVVQPGRSLRLSCAASGFTFCSYTMHWVRQAPGKGLEWVTFISYDGNNKYYADSVKGRFTISRDNSKNTLYLQMNSLRAEDTAIYYCARTGWLGPFDYWGQGTLVTVSS VL: not shown | 90 to 110 |
| anti-CTLA-4 antibody heavy chain G66C (antibody, human IgG1, kappa, V domains shown) VH: QVQLVESGGGVVQPGRSLRLSCAASGFTFSSYTMHWVRQAPGKGLEWVTFISYDGNNKYYADSVKCRFTISRDNSKNTLYLQMNSLRAEDTAIYYCARTGWLGPFDYWGQGTLVTVSS VL: not shown | 90 to 110 |
| anti-CTLA-4 antibody heavy chain S31C (antibody, human IgG1, kappa, V domains shown) VH: QVQLVESGGGVVQPGRSLRLSCAASGFTFSCYTMHWVRQAPGKGLEWVTFISYDGNNKYYADSVKGRFTISRDNSKNTLYLQMNSLRAEDTAIYYCARTGWLGPFDYWGQGTLVTVSS VL: not shown | 90 to 110 |
| anti-CTLA-4 antibody heavy chain T33C (antibody, human IgG1, kappa, V domains shown) VH: QVQLVESGGGVVQPGRSLRLSCAASGFTFSSYCMHWVRQAPGKGLEWVTFISYDGNNKYYADSVKGRFTISRDNSKNTLYLQMNSLRAEDTAIYYCARTGWLGPFDYWGQGTLVTVSS VL: not shown | 90 to 110 |
| anti-CTLA-4 antibody heavy chain G55C (antibody, human IgG1, kappa, V domains shown) VH: QVQLVESGGGVVQPGRSLRLSCAASGFTFSSYTMHWVRQAPGKGLEWVTFISYDCNNKYYADSVKGRFTISRDNSKNTLYLQMNSLRAEDTAIYYCARTGWLGPFDYWGQGTLVTVSS VL: not shown | 90 to 110 |
| anti-CTLA-4 antibody heavy chain S63C (antibody, human IgG1, kappa, V domains shown) VH: QVQLVESGGGVVQPGRSLRLSCAASGFTFSSYTMHWVRQAPGKGLEWVTFISYDGNNKYYADCVKGRFTISRDNSKNTLYLQMNSLRAEDTAIYYCARTGWLGPFDYWGQGTLVTVSS VL: not shown | 90 to 110 |

These binders were tested against T1, PD-1 (assay: ELISA, OD mutant/OD WT; B=70-90%).

| Binder | binding activity (OD after mutation/OD wild type) [%] |
| --- | --- |
| anti-PD-1 antibody 1 heavy chain I51C (antibody, human IgG4 S228P, kappa, V domains shown) VH: QVQLVQSGVEVKKPGASVKVSCKASGYTFTNYYMYWVRQAPGQGLEWMGGCNPSNGGTNFNEKFKNRVTLTTDSSTTTAYMELKSLQFDDTAVYYCARRDYRFDMGFDYWGQGTTVTVSS VL: EIVLTQSPATLSLSPGERATLSCRASKGVSTSGYSYLHWYQQKPGQAPRLLIYLASYLESGVPARFSGSGSGTDFTLTISSLEPEDFAVYYCQHSRDLPLTFGGGTKVEIKR | 70 to 90 |
| anti-PD-1 antibody 1 heavy chain K63C (antibody, human IgG4 S228P, kappa, V domains shown) VH: QVQLVQSGVEVKKPGASVKVSCKASGYTFTNYYMYWVRQAPGQGLEWMGGINPSNGGTNFNECFKNRVTLTTDSSTTTAYMELKSLQFDDTAVYYCARRDYRFDMGFDYWGQGTTVTVSS VL: EIVLTQSPATLSLSPGERATLSCRASKGVSTSGYSYLHWYQQKPGQAPRLLIYLASYLESGVPARFSGSGSGTDFTLTISSLEPEDFAVYYCQHSRDLPLTFGGGTKVEIKR | 70 to 90 |
| anti-PD-1 antibody 1 heavy chain Y35C (antibody, human IgG4 S228P, kappa, V domains shown) VH: QVQLVQSGVEVKKPGASVKVSCKASGYTFTNYYMCWVRQAPGQGLEWMGGINPSNGGTNFNEKFKNRVTLTTDSSTTTAYMELKSLQFDDTAVYYCARRDYRFDMGFDYWGQGTTVTVSS VL: EIVLTQSPATLSLSPGERATLSCRASKGVSTSGYSYLHWYQQKPGQAPRLLIYLASYLESGVPARFSGSGSGTDFTLTISSLEPEDFAVYYCQHSRDLPLTFGGGTKVEIKR | 70 to 90 |
